{"source": "IntAct's records for PubMed 24282027", "key": {"dyn1_human DNM1": {"biological_target": "dyn1_human DNM1 (UniProt Q05193)", "sequence (Q05193 whole entry)": "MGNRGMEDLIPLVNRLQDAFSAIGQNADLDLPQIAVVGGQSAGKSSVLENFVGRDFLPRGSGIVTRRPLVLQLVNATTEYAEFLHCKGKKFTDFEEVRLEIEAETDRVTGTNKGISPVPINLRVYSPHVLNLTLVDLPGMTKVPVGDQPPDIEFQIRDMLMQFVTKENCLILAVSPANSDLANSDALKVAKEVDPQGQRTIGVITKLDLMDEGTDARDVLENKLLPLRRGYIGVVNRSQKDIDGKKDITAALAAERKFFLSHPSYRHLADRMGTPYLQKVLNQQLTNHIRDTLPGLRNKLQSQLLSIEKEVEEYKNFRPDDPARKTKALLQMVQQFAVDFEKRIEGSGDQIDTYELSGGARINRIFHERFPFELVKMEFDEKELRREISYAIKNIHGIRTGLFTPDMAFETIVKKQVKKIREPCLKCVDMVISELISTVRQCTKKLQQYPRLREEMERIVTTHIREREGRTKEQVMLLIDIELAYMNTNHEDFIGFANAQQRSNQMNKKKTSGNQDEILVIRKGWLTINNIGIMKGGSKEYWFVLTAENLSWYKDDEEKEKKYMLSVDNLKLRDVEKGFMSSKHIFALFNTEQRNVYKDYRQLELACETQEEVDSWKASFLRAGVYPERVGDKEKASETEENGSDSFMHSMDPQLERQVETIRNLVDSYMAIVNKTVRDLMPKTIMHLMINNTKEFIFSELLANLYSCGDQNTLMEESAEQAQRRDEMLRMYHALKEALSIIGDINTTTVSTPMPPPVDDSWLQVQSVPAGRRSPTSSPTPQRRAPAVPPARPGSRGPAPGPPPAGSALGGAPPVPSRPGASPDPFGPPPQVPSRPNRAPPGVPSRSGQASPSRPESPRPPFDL"}, "mfn1_mouse Mfn1": {"biological_target": "mfn1_mouse Mfn1 (UniProt Q811U4)", "sequence (Q811U4 whole entry)": "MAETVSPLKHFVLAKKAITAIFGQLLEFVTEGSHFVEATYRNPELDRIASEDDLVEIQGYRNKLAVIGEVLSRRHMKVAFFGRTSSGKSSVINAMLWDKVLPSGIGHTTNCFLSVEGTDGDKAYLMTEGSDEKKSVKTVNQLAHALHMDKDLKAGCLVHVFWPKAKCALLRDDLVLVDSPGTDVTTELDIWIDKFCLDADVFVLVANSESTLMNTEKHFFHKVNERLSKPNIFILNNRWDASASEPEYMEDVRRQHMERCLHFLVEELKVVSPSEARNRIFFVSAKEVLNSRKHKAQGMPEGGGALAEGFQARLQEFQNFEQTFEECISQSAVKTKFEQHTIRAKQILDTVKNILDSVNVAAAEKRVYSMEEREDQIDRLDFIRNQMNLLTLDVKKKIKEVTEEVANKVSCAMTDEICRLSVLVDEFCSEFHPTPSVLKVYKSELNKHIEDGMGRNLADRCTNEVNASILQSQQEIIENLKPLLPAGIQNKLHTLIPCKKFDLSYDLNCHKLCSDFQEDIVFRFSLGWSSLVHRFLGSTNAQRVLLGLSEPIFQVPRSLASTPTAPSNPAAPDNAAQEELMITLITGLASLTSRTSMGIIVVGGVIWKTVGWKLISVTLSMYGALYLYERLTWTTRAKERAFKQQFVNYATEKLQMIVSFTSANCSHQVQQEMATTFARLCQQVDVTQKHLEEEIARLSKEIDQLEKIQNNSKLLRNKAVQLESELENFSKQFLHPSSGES"}}, "data": [{"substance": "Leucine-rich repeat serine/threonine-protein kinase 2 (Homo sapiens), Q5S007 G2019S", "values": [{"measurement": "effect of a mutation on the interaction", "setting": "dyn1_human DNM1", "result": "increasing interaction"}, {"measurement": "effect of a mutation on the interaction", "setting": "mfn1_mouse Mfn1", "result": "increasing interaction"}]}]}
